According to PMC5812989, “Evaluation of HER2-specific peptide ligand for its employment as radiolabeled imaging probe” (Scientific Reports, 2018):
Where a SMILES comes first, the peptide text is derived from it. Where no end group is shown, it is not given here. The star is where a group is joined. DTPA = O=C(O)CN(CCN(CC(=O)O)CC(=O)O)CCN(CC(=O)O)CC(=O)*

How the values were obtained:
[1] = In vitro peptide stability in serum (HPLC); assay type: in vitro ADME; conditions: during one hour; 0.5 mg/mL, RPMI with 10% FBS, 37 °C
Protocol: Figure S4: In vitro Peptide Stability in Serum. A9 modified peptides at concentration of 0.5 mg/mL were dissolved in RPMI containing 10% of FBS (fetal bovine serum) and incubated at 37 °C. Samples (50 μL) were taken regularly (t = 0, 0.5, 1, 2, 3, 6, and 24 h) and mixed with 100 μL of CH3CH2OH (96%), for precipitation of serum proteins. The cloudy reaction sample is cooled (4 °C) for 15 min and then spin at 16,000 rpm for 2 min, to pellet the precipitated serum proteins^1. The chromatographic analysis of samples (30 μL injected for each injection) were performed on an Alliance HT WATERS 2795 system, equipped with a PDA WATERS detector 2996 using a […] C18 Waters xBridge (3 μm, 4.6 x 50 mm) column, with a linear gradient from 5% to 70% of 0.05% TFA in CH3CN (Solvent B) over 20 min at a flow rate of 0.2 mL/min. […] Results are mean of three independent experiments performed in duplicate.

[2] = set-up: species or system BALB/c nu/nu mice; conditions: mouse, in vivo
Protocol: Four BALB/C nu/nu mice were used for the biodistribution studies. At the time of experiment, the average animal weight was 20.5 ± 0.9 g. Animals were injected intravenously (tail vein) with 3 µg (30 kBq) of ^111In-DTPA-A9 in 100 µL PBS. Since DTPA-A9 peptide resulted stable to serum proteolytic degradation in a range of 90 minutes (for details see Supplementary Information Fig. S6), at 1 hour after injection, a mixture of Ketalar-Rompun (20 µL of solution per gram body weight; Ketalar: 10 mg/mL; Rompun: 1 mg/mL) was injected intraperitonealy, and the mice were euthanized by a heart puncture using a syringe, pre-washed with diluted heparin (5000 IE/mL). Blood as well as brain, stomach, pancreas, lung, liver, spleen, kidneys, samples of muscle and bone, gastrointestinal tract (with its content) and remaining carcass were collected in pre-weighed plastic vials. Organs and tissue samples were weighed and measured for radioactivity using an automatic gamma counter. The tissue uptake values were calculated as per cent injected activity per gram of tissue (% ID/g) and per whole sample (% ID/sample). The gastrointestinal tract and the carcass uptakes were calculated only as % ID per whole sample. The radioactivity in the gastrointestinal tract with its content was used as a measure of hepatobiliary excretion.

[3] = system: HER2-expressing BT474 cells; assay: LigandTracer / InteractionMap kinetics of binding to living HER2-expressing cells; set-up: species or system human; conditions: 1:2 interaction model, room temperature, 4, 12 and 36 nM, read-out: affinity, weaker binding site (low affinity interaction)
Protocol: For cell studies, the HER2-expressing breast carcinoma cell line BT474 (from ATCC) was used. The cell line was cultured in RPMI medium (Flow Irvine, UK) supplemented with 10% fetal calf serum (Sigma, USA), 2 mM L-glutamine and PEST (penicillin 100 IU/mL and 100 μg/mL streptomycin), all from Biokrom Kg, Germany.
Cells from the human breast carcinoma cell line BT474 were seeded on a local area of a cell culture dish (NunclonTM, Size 100620, NUNC A/S, Roskilde, Denmark), as described by Björke and Andersson[63]. The binding of ^111In-DTPA-A9 to living cells was monitored in real-time at room temperature using LigandTracer Yellow, using method established by Björke and Andersson[63]. In brief, the cell culture dish was placed on the sloping and rotating cell dish holder in LigandTracer Yellow, followed by a continuous monitoring of the radioactivity level along the rim of the dish. If the labelled peptide binds to the cells, an elevated signal will be recorded when the cells pass by the detector. […] Binding and dissociation curves were analyzed by InteractionMap software as described by Björkelund et al. to calculate affinity of ^111In-DTPA-A9 binding to living HER2-expressing cells.
Additionally, specificity of ^111In-DTPA-A9 binding to HER2 expressing cells was evaluated using pre-saturation of receptors by trastuzumab and by using ^111In-labeled scrambled DTPA-A9 (^111In- DTPA-S-A9). […]

With QDVNTAVAW-NH2 [A9] the “stability on incubation in vitro with blood serum” value [1] was “high stability”.
In the case of `CC(C)[C@H](NC(=O)[C@H](C)NC(=O)[C@@H](NC(=O)[C@H](CC(N)=O)NC(=O)[C@@H](NC(=O)[C@H](CC(=O)O)NC(=O)[C@H](CCC(N)=O)NC(=O)CN(CCN(CCN(CC(=O)O)CC(=O)O)CC(=O)O)CC(=O)O)C(C)C)[C@@H](C)O)C(=O)N[C@@H](C)C(=O)N[C@@H](Cc1c[nH]c2ccccc12)C(N)=O` [^111In-DTPA-A9, metal not drawn] ({DTPA}-QDVNTAVAW-NH2), the “radioactivity in the gastrointestinal tract with content” value [2] is reported as “approximately 1 % of injected activity”, the “uptake, blood” value ([2]; iv, 1 h) is reported as 0.24 ± 0.04 % ID/g and the “uptake, bone” value ([2]; iv, 1 h) is reported as 0.16 ± 0.13 % ID/g. The “uptake, brain” value ([2]; iv, 1 h) was 0.03 ± 0.03 % ID/g, the “uptake, liver” value ([2]; iv, 1 h) was 0.44 ± 0.04 % ID/g and the “uptake, lung” value ([2]; iv, 1 h) was 0.5 ± 0.3 % ID/g. The “uptake, muscle” value ([2]; iv, 1 h) was 0.01 ± 0.01 % ID/g, the “uptake, pancreas” value ([2]; iv, 1 h) was 0.13 ± 0.03 % ID/g and the “uptake, spleen” value ([2]; iv, 1 h) was 0.22 ± 0.01 % ID/g. For the same molecule, the “uptake, stomach” value ([2]; iv, 1 h) was 0.27 ± 0.07 % ID/g.
Molecule “^111In-DTPA-SA9: 111In-labeled scrambled conjugate, same amino acids as A9 but in a different order ({DTPA}-WAVQNTDAV-NH2; also: DTPA complexed with 111In)” has a Kd [3] of 103 nM.
